Here are results for nine molecules from US11999805.

In one data set the target is T1, Peptide 15.
T1 chain: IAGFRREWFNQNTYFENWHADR

In another data set the target is T2, Peptide 60.
T2 chain: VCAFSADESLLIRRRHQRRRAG

The target of a further data set is T3, Peptide 90.
T3 chain: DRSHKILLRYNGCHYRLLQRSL

In a further data set the target is T4, Peptide 91.
T4 chain: VYDFYRMLSHFFLKGPSR

Another data set has as its target T5, Peptide 99.
T5 chain: RRSHIAWLLAMSLTWYS

The target in data set [1] is SpyCas9 (S. pyogenes), Q99ZW2. Briefly: cell-based or functional assay.

B1: SauCas9 (protein)
chain: MKRNYILGLDIGITSVGYGIIDYETRDVIDAGVRLFKEANVENNEGRRSKRGARRLKRRRRHRIQRVKKLLFDYNLLTDHSELSGINPYEARVKGLSQKLSEEEFSAALLHLAKRRGVHNVNEVEEDTGNELSTKEQISRNSKALEEKYVAELQLERLKKDGEVRGSINRFKTSDYVKEAKQLLKVQKAYHQLDQSFIDTYIDLLETRRTYYEGPGEGSPFGWKDIKEWYEMLMGHCTYFPEELRSVKYAYNADLYNALNDLNNLVITRDENEKLEYYEKFQIIENVFKQKKKPTLKQIAKEILVNEEDIKGYRVTSTGKPEFTNLKVYHDIKDITARKEIIENAELLDQIAKILTIYQSSEDIQEELTNLNSELTQEEIEQISNLKGYTGTHNLSLKAINLILDELWHTNDNQIAIFNRLKLVPKKVDLSQQKEIPTTLVDDFILSPVVKRSFIQSIKVINAIIKKYGLPNDIIIELAREKNSKDAQKMINEMQKRNRQTNERIEEIIRTTGKENAKYLIEKIKLHDMQEGKCLYSLEAIPLEDLLNNPFNYEVDHIIPRSVSFDNSFNNKVLVKQEENSKKGNRTPFQYLSSSDSKISYETFKKHILNLAKGKGRISKTKKEYLLEERDINRFSVQKDFINRNLVDTRYATRGLMNLLRSYFRVNNLDVKVKSINGGFTSFLRRKWKFKKERNKGYKHHAEDALIIANADFIFKEWKKLDKAKKVMENQMFEEKQAESMPEIETEQEYKEIFITPHQIKHIKDFKDYKYSHRVDKKPNRELINDTLYSTRKDDKGNTLIVNNLNGLYDKDNDKLKKLINKSPEKLLMYHHDPQTYQKLKLIMEQYGDEKNPLYKYYEETGNYLTKYSKKDNGPVIKKIKYYGNKLNAHLDITDDYPNSRNKVVKLSLKPYRFDVYLDNGVYKFVTVKNLDVIKKENYYEVNSKCYEEAKKLKKISNQAEFIASFYNNDLIKINGELYRVIGVNNDLLNRIEVNMIDITYREYLENMNDKRPPRIIKTIASKTQSIKKYSTDILGNLYEVKSKKHPQIIKKG
Take B1: the “reduction in cleavage-based fluorescence at 200 µM peptide, FRET assay” value in the data set with Many MPs was “Many MPs also reduced SauCas9 and CjeCas9 mediated cleavage at 200 µM with a greater than 80% reduction in fluorescence”. In addition, the “% activity, FRET cleavage assay” value with Peptide 15 is “Peptide15 significantly reduced activity of CjeCas9 and SpyCas9 and SauCas9 at 200 µM (P<0.01)”; with Peptide 60, “Peptide 60, 90, and 91 significantly reduced activity of SauCas9 and SpyCas9 at 200 µM (P<0.005)”; with Peptide 90 it was “Peptide 60, 90, and 91 significantly reduced activity of SauCas9 and SpyCas9 at 200 µM (P<0.005)”; with Peptide 91, “Peptide 60, 90, and 91 significantly reduced activity of SauCas9 and SpyCas9 at 200 µM (P<0.005)”; in the data set with Peptide 99, “Peptide 99 significantly reduced activity of all three Cas9 variants at 100 and 200 µM (P<0.005)”.
In data set [1], LYYRIMLSCPKYYPCELVGHTS (modifications not checked) [Peptide 50] displayed an IC50(uM), FRET cleavage assay of 145 µM and a reduced editing (compared to plasmid control), A549 GFP reporter cells of 30%.

B2: CjeCas9 (protein)
chain: MARILAFDIGISSIGWAFSENDELKDCGVRIFTKVENPKTGESLALPRRLARSARKRLARRKARLNHLKHLIANEFKLNYEDYQSFDESLAKAYKGSLISPYELRFRALNELLSKQDFARVILHIAKRRGYDDIKNSDDKEKGAILKAIKQNEEKLANYQSVGEYLYKEYFQKFKENSKEFTNVRNKKESYERCIAQSFLKDELKLIFKKQREFGFSFSKKFEEEVLSVAFYKRALKDFSHLVGNCSFFTDEKRAPKNSPLAFMFVALTRIINLLNNLKNTEGILYTKDDLNALLNEVLKNGTLTYKQTKKLLGLSDDYEFKGEKGTYFIEFKKYKEFIKALGEHNLSQDDLNEIAKDITLIKDEIKLKKALAKYDLNQNQIDSLSKLEFKDHLNISFKALKLVTPLMLEGKKYDEACNELNLKVAINEDKKDFLPAFNETYYKDEVTNPVVLRAIKEYRKVLNALLKKYGKVHKINIELAREVGKNHSQRAKIEKEQNENYKAKKDAELECEKLGLKINSKNILKLRLFKEQKEFCAYSGEKIKISDLQDEKMLEIDHIYPYSRSFDDSYMNKVLVFTKQNQEKLNQTPFEAFGNDSAKWQKIEVLAKNLPTKKQKRILDKNYKDKEQKNFKDRNLNDTRYIARLVLNYTKDYLDFLPLSDDENTKLNDTQKGSKVHVEAKSGMLTSALRHTWGFSAKDRNNHLHHAIDAVIIAYANNSIVKAFSDFKKEQESNSAELYAKKISELDYKNKRKFFEPFSGFRQKVLDKIDEIFVSKPERKKPSGALHEETFRKEEEFYQSYGGKEGVLKALELGKIRKVNGKIVKNGDMFRVDIFKHKKTNKFYAVPIYTMDFALKVLPNKAVARSKKGEIKDWILMDENYEFCFSLYKDSLILIQTKDMQEPEFVYYNAFTSSTVSLIVSKHDNKFETLSKNQKILFKNANEKEVIAKSIGIQNLKVFEKYIVSALGEVTKAEFRQREDFKK
On to B2, for which the “reduction in cleavage-based fluorescence at 200 µM peptide, FRET assay” value with Many MPs is “Many MPs also reduced SauCas9 and CjeCas9 mediated cleavage at 200 µM with a greater than 80% reduction in fluorescence”. Further, the “% activity, FRET cleavage assay” value with Peptide 15 is “Peptide15 significantly reduced activity of CjeCas9 and SpyCas9 and SauCas9 at 200 µM (P<0.01)”; with Peptide 99, “Peptide 99 significantly reduced activity of all three Cas9 variants at 100 and 200 µM (P<0.005)”.
In data set [1], DRSHKILLRYNGCHYRLLQRSL (modifications not checked) [Peptide 90] displayed an IC50(uM), FRET cleavage assay of 114 µM and a reduced editing (compared to plasmid control), A549 GFP reporter cells of 35%.
Consider RRSHIAWLLAMSLTWYS (modifications not checked) [Peptide 99], for which, in data set [1], the IC50(uM), FRET cleavage assay amounted to 48.5 µM.
Still for that read-out and setting: then LNVKIGNAHLTTIMSTMPLVLC (modifications not checked) [Peptide 63], with 97.9 µM; and KERRRSLMQLSVKSNSLFLGGT (modifications not checked) [Peptide 82], with more than 200 µM.
For the molecule VCAFSADESLLIRRRHQRRRAG (modifications not checked) [Peptide 60], in data set [1], the IC50(uM), FRET cleavage assay amounted to 92.2 µM and the reduced editing (compared to plasmid control), A549 GFP reporter cells was determined as 30%.
For IAGFRREWFNQNTYFENWHADR (modifications not checked) [Peptide 15], the reduced editing (compared to plasmid control), A549 GFP reporter cells in data set [1] was found to be 21%.
